# In US20250002527A1, “STEROID COMPOUND AND CONJUGATE THEREOF” (DUALITY BIOLOGICS (SUZHOU) CO., LTD., priority 2021, published 2025):
# Experiments:
# Format in all cases: cell-based
# [1] = tested on: human PBMC cells; test: TNF-α secretion from PBMC under R848 stimulation (compounds); conditions: R848 5 μM, 24 hours, mean ± standard deviation
# Description: (§1) The compounds of the present application were tested for their inhibitory effect on the production of peripheral blood monocytes. The peripheral blood monocytes were treated in vitro with the ligand-drug conjugate at different concentrations, and IFNα and TNFα generated by the peripheral blood monocytes were quantitatively detected after a certain time. The compounds of the present invention were evaluated for in-vitro activity.
# (§2) The cryopreserved human PBMC cells were resuspended in a complete medium and counted, and the cell suspension was adjusted to 2.5×10*6 cells/mL with the culture medium. After the suspension was centrifuged to collect the cells the next day, the cells were resuspended using fresh culture medium. Test compounds were diluted to 4-fold final concentration in cell culture medium, 50 μL of the compounds were added into a 96-well cell plate, and 100 μL of diluted cells ([…]) were added into each well of the 96-well plate containing the compounds, followed by addition of 50 μL R848 to a final concentration of 5 μM. The cell plate was incubated at 37° C. with 5% CO2 for 24 hours. The supernatant was collected, and the TNF-α and IFN-α concentration levels in the supernatant were detected using an ELISA kit.
# TNF-α concentration assay was performed using Dakewe TNF-α ELISA kit (Cat #1117202), 100 μL of the serially-diluted cytokine standard was added into each well, 100 μL of the above supernatant diluted 10-fold was added into each well, and 100 μL of 1× dilution buffer R was added into each blank well. 50 μL of biotinylated antibody working solution was added into each well. After mixing well, the plate was covered with the plate-sealing membrane and incubated at room temperature for 3 hours. The plate was washed for 3 times: the liquid in each well was discarded, and 300 μL of 1× washing buffer working solution was added into each well; after 1 minute of residence, the liquid in the wells was discarded. The procedure was repeated for 3 times. 100 μL of Streptavidin-HRP working solution was added into each well. The plate was covered with the plate-sealing membrane and incubated at room temperature for 20 minutes. The plate was washed for 3 times, 100 μL of TMB liquid was added into each well, and the plate was incubated for 25 minutes at room temperature (18-25° C.) in the dark. The reaction was stopped by adding 100 μL stop solution rapidly to each well. The reading at a wavelength of 450 nm was detected by an M2e instrument within 10 minutes after termination.
# (§3) The contents of TNF-α and IFN-α were calculated from the OD450 values.
# [2] = tested on: human PBMC cells; test: IFN-α secretion from PBMC under R848 stimulation (compounds); conditions: R848 5 μM, 24 hours, mean ± standard deviation
# Description: as §1, §2
# 50 μL of biotinylated antibody working solution was added into each well. After mixing well, the plate was covered with the plate-sealing membrane and incubated at room temperature for 3 hours. […] The procedure was repeated for 3 times. 100 μL of Streptavidin-HRP working solution was added into each well. The plate was covered with the plate-sealing membrane and incubated at room temperature for 20 minutes. The plate was washed for 3 times, 100 μL of TMB liquid was added into each well, and the plate was incubated for 25 minutes at room temperature (18-25° C.) in the dark. The reaction was stopped by adding 100 μL stop solution rapidly to each well. The reading at a wavelength of 450 nm was detected by an M2e instrument within 10 minutes after termination.
# as §3
# [3] = tested on: human PBMC cells; test: R848-induced IFNα release from PBMCs (drug conjugates, FIG. 1a); conditions: incubation concentration 300 nm
# Description: (§4) 1a: R848-induced IFNα release from PBMCs; 1b: R848-induced TNFα release from PBMCs; 1c: R848-induced IL6 release from PBMCs, 1d: R848-induced IL8 release from PBMCs.
# (§5) The inhibitory effect of the ligand-drug conjugate (ADC) of the present application on the production of IFNα by peripheral blood monocytes was examined. The peripheral blood monocytes were treated in vitro with the ligand-drug conjugate at different concentrations, and IFNα and TNFα generated by the peripheral blood monocytes were quantitatively detected after a certain time. The ligand-drug conjugates were evaluated for in-vitro activity.
# (§6) The cryopreserved human PBMC cells were resuspended in a complete medium and counted, and the cell suspension was adjusted to 2.5×10*6 cells/mL with the culture medium. After the suspension was centrifuged to collect the cells the next day, the cells were resuspended using fresh culture medium, and 100 μL of diluted cells ([…]) were added into a 96-well plate. The test samples were diluted to 3-fold final stimulation concentration using fresh culture medium, 50 μL of the diluted test samples were added into the 96-well cell plate, and the cell plate was incubated at 37° C. with 5% CO2 for 12 hours, followed by addition of 50 μL 20 μM R848 each well. The cell plate was incubated at 37° C. with 5% CO2 for 20 hours. The supernatant was collected, and the cytokine concentration in the supernatant was detected using a kit.
# (§7) IFN-α concentration assay was performed using Dakewe TNF-α ELISA kit (Cat #1110012), 100 μL of the serially-diluted cytokine standard was added into each well, 100 μL of the above supernatant diluted 2-fold was added into each well, and 100 μL of 1× dilution buffer R was added into each blank well. 50 μL of biotinylated antibody working solution was added into each well. After mixing well, the plate was covered with the plate-sealing membrane and incubated at room temperature for 3 hours. […] The reading at a wavelength of 450 nm was detected by an M2e instrument within 10 minutes after termination.
# [4] = tested on: human PBMC cells; test: R848-induced IL8 release from PBMCs (drug conjugates, FIG. 1d); conditions: incubation concentration 300 nm
# Description: as §4, §5, §6
# as §7, with “IL-8” for “IFN-α”, “IL-8” for “TNF-α”, “#1110802),” for “#1110012),”
# [5] = tested on: human PBMC cells; test: R848-induced TNFα release from PBMCs (drug conjugates, FIG. 1b); conditions: incubation concentration 300 nm
# Description: as §4, §5, §6
# as §7, with “TNF-α” for “IFN-α”, “#1117202),” for “#1110012),”, “10-fold” for “2-fold”
# [6] = tested on: human PBMC cells; test: R848-induced IL6 release from PBMCs (drug conjugates, FIG. 1c); conditions: incubation concentration 300 nm
# Description: as §4, §5, §6
# IL-6 concentration assay was performed using Dakewe IL-6 ELISA kit (Cat #DKW12-1060-096), 100 μL of serially-diluted cytokine standard was added into each well, 100 μL of the above supernatant diluted 2-fold was added into each well, and 100 μL of 1× dilution buffer R was added into each blank well. 50 μL of biotinylated antibody working solution was added into each well. After mixing well, the plate was covered with the plate-sealing membrane and incubated at room temperature for 3 hours. […] The reading at a wavelength of 450 nm was detected by an M2e instrument within 10 minutes after termination.
molecule,measurement,setting,value
C[C@]12C=CC(=O)C=C1CC[C@@H]1[C@@H]2[C@@H](O)C[C@@]2(C)[C@H]1C[C@H]1O[C@@H](c3ccc(Cc4cccc(N)c4)cc3)O[C@]12C(=O)CO [Compound 14],TNF-α secretion (pg/mL) from PBMC under R848 stimulation,[1]; compound 4 nM,868 pg/mL
same,TNF-α secretion (pg/mL) from PBMC under R848 stimulation,[1]; compound 20 nM,465.6 pg/mL
same,TNF-α secretion (pg/mL) from PBMC under R848 stimulation,[1]; compound 100 nM,471.9 pg/mL
same,IFN-α secretion (pg/mL) from PBMC under R848 stimulation,[2]; compound 20 nM,10.2 ± 10.2 pg/mL
same,IFN-α secretion (pg/mL) from PBMC under R848 stimulation,[2]; compound 100 nM,13 ± 13 pg/mL
"C[C@@H]1C[C@H]2[C@@H]3CCC4=CC(=O)C=C[C@]4(C)[C@@]3(F)[C@@H](O)C[C@]2(C)[C@@]1(O)C(=O)CO [Dexamethasone, dexamethasone, reference compound]",TNF-α secretion (pg/mL) from PBMC under R848 stimulation,[1]; compound 4 nM,1446.5 pg/mL
same,TNF-α secretion (pg/mL) from PBMC under R848 stimulation,[1]; compound 20 nM,761.9 pg/mL
same,TNF-α secretion (pg/mL) from PBMC under R848 stimulation,[1]; compound 100 nM,396.4 pg/mL
same,IFN-α secretion (pg/mL) from PBMC under R848 stimulation,[2]; compound 4 nM,620.7 ± 70.4 pg/mL
same,IFN-α secretion (pg/mL) from PBMC under R848 stimulation,[2]; compound 20 nM,169.6 ± 94.4 pg/mL
same,IFN-α secretion (pg/mL) from PBMC under R848 stimulation,[2]; compound 100 nM,0 ± 0 pg/mL
"Conjugate 19: antibody BIIB059 reacted with Compound 9 ""to give Conjugate 19""; 4.75 by LC-MS (conjugate, chains of the INN, looked up, Compound 9 conjugate, antibody BIIB059 reacted with Compound 9 ""to give Conjugate 19""; 4.75 by LC-MS) VH: DVQLVESGGGLVKPGGSLRLSCAASGFTFSTYTMSWVRQAPGKGLEWVATISPGDSFGYYYPDSVQGRFTISRDNAKNSLYLQMNSLRAEDTAVYYCTRDIYYNYGAWFAYWGQGTLVTVSS VL: DIQLTQSPSSLSASVGDRVTITCKASQSVDYDGDSYMNWYQQKPGKAPKLLIYAASTLESGVPSRFSGSGSGTDFTLTISSLQPEDFATYYCQQANEDPRTFGQGTKVEIK",IFN-α contents in the detection system,[3],113.2 pg/mL
same,IL-8 contents in the detection system,[4],26565.5 pg/mL
same,TNF-α contents in the detection system,[5],761.8 pg/mL
same,IL-6 contents in the detection system,[6],8861.7 pg/mL
"Conjugate 20: antibody BIIB059 reacted with Compound 16 ""to give Conjugate 20""; 4.27 by LC-MS (conjugate, chains of the INN, looked up, conjugated to Compound 16, antibody BIIB059 reacted with Compound 16 ""to give Conjugate 20""; 4.27 by LC-MS) VH: DVQLVESGGGLVKPGGSLRLSCAASGFTFSTYTMSWVRQAPGKGLEWVATISPGDSFGYYYPDSVQGRFTISRDNAKNSLYLQMNSLRAEDTAVYYCTRDIYYNYGAWFAYWGQGTLVTVSS VL: DIQLTQSPSSLSASVGDRVTITCKASQSVDYDGDSYMNWYQQKPGKAPKLLIYAASTLESGVPSRFSGSGSGTDFTLTISSLQPEDFATYYCQQANEDPRTFGQGTKVEIK",IFN-α contents in the detection system,[3],1422.5 pg/mL
same,IL-8 contents in the detection system,[4],56315.8 pg/mL
same,TNF-α contents in the detection system,[5],3280.0 pg/mL
same,IL-6 contents in the detection system,[6],34744.1 pg/mL
"Conjugate 21: antibody BIIB059 reacted with Compound 15 ""to give Conjugate 21""; 4.30 by LC-MS (conjugate, chains of the INN, looked up, Compound 15 conjugate, antibody BIIB059 reacted with Compound 15 ""to give Conjugate 21""; 4.30 by LC-MS) VH: DVQLVESGGGLVKPGGSLRLSCAASGFTFSTYTMSWVRQAPGKGLEWVATISPGDSFGYYYPDSVQGRFTISRDNAKNSLYLQMNSLRAEDTAVYYCTRDIYYNYGAWFAYWGQGTLVTVSS VL: DIQLTQSPSSLSASVGDRVTITCKASQSVDYDGDSYMNWYQQKPGKAPKLLIYAASTLESGVPSRFSGSGSGTDFTLTISSLQPEDFATYYCQQANEDPRTFGQGTKVEIK",IFN-α contents in the detection system,[3],911.9 pg/mL
same,IL-8 contents in the detection system,[4],43544.9 pg/mL
same,TNF-α contents in the detection system,[5],2644.1 pg/mL
same,IL-6 contents in the detection system,[6],29867.1 pg/mL
